The source of these data is the Immune Epitope Database (IEDB).

Where only a bound is given, the exact number is not on record here.

For one experiment, the target named is HLA-A*02:01. Briefly: IEDB peptide-MHC binding, purified MHC/direct/fluorescence; filed as Kd, often an IC50 or EC50 that approximates it; ≥ and ≤ were set here for values at or beyond the usual limits of such assays.
For experiment [1], the target named is HLA-B*18:01. Described as above.
Another experiment addresses HLA-B*08:03. The description is as above.
The target of another experiment is HLA-A*68:02. The experiment is described as above.
Another experiment deals with HLA-B*07:02. Described as above.
Another experiment concerns the target HLA-A*31:01. The experiment is described as above.
The next experiment concerns the target HLA-B*27:05. The description is as above.
The next experiment deals with HLA-B*57:01. The experiment is described as above.
A further experiment addresses HLA-B*15:17. Described as above.
In the next experiment the target is HLA-B*15:01. Described as above.
The target in the next experiment is HLA-B*48:01. The description is as above. The conditions noted are these: source organism: Campylobacter jejuni RM1221.
A further experiment deals with HLA-B*58:01. The experiment is described as above.
For another experiment, the target named is HLA-A*03:01. Described as above.
The target in another experiment is HLA-B*40:01. The experiment is described as above.
Another experiment has as its target HLA-A*01:01. The description is as above.
The target in the next experiment is HLA-B*46:01. Described as above.
The next experiment has as its target HLA-A*69:01. The experiment is described as above.
Experiment [2] concerns the target HLA-A*02:06. The description is as above. The conditions noted are these: source organism: Vibrio vulnificus YJ016.
For the next experiment, the target named is HLA-A*02:11. Described as above. The conditions noted are these: source organism: Vibrio vulnificus YJ016.
Another experiment has as its target HLA-A*24:02. The experiment is described as above.
The target in another experiment is HLA-B*44:02. The experiment is described as above.
For experiment [3], the target named is HLA-B*08:01. Described as above.
Another experiment addresses HLA-A*26:01. Described as above.
In a further experiment the target is HLA-A*02:03. The experiment is described as above. The conditions noted are these: source organism: Vibrio vulnificus YJ016.
The target of another experiment is HLA-A*02:12. Described as above. The conditions noted are these: source organism: Vibrio vulnificus YJ016.
Another experiment addresses HLA-A*02:19. The description is as above. The conditions noted are these: source organism: Vibrio vulnificus YJ016.
Another experiment addresses HLA-B*51:01. Briefly: IEDB peptide-MHC binding, purified MHC/competitive/fluorescence; filed as Kd, often an IC50 or EC50 that approximates it; ≥ and ≤ were set here for values at or beyond the usual limits of such assays. The conditions noted are these: source organism: Influenza A virus (A/X-31(H3N2)).
Experiment [4] concerns the target HLA-B*08:01. The experiment is described as above. The conditions noted are these: source organism: Influenza A virus (A/X-31(H3N2)).
The target of another experiment is HLA-A*11:01. Briefly: IEDB peptide-MHC binding, purified MHC/direct/fluorescence; filed as Kd, often an IC50 or EC50 that approximates it; ≥ and ≤ were set here for values at or beyond the usual limits of such assays.
A further experiment concerns the target HLA-A*29:02. Described as above. The conditions noted are these: source organism: Influenza A virus (A/Hong Kong/507/97(H5N1)).
The target of a further experiment is HLA-B*15:02. The experiment is described as above.
For experiment [5], the target named is HLA-A*02:06. In words: IEDB peptide-MHC binding, purified MHC/competitive/fluorescence; filed as Kd, often an IC50 or EC50 that approximates it; ≥ and ≤ were set here for values at or beyond the usual limits of such assays. The conditions noted are these: source organism: Mammarenavirus lassaense.
Experiment [6] deals with HLA-B*18:01. The experiment is described as above. The conditions noted are these: source organism: Mammarenavirus lassaense.
The target in a further experiment is HLA-A*24:03. Briefly: IEDB peptide-MHC binding, purified MHC/direct/fluorescence; filed as Kd, often an IC50 or EC50 that approximates it; ≥ and ≤ were set here for values at or beyond the usual limits of such assays. The conditions noted are these: source organism: Mammarenavirus lassaense.
The target in the next experiment is HLA-A*23:01. Described as above. The conditions noted are these: source organism: Mammarenavirus lassaense.
A further experiment addresses HLA-A*26:02. The description is as above. The conditions noted are these: source organism: Mammarenavirus lassaense.
The next experiment addresses HLA-B*35:01. Described as above. The conditions noted are these: source organism: Burkholderia mallei ATCC 23344.
Where [7] appears, read: source organism: Campylobacter jejuni RM1221.
Setting [8] is: source organism: Vibrio cholerae.
The mark [9] stands for this setting: source organism: Vibrio vulnificus YJ016.
Where [10] appears, read: source organism: Influenza A virus (A/Hong Kong/507/97(H5N1)).
Where [11] appears, read: source organism: Vibrio parahaemolyticus.
Setting [12] is: source organism: Orthohantavirus hantanense.
[13] abbreviates: source organism: Mammarenavirus lassaense.
[14] abbreviates: source organism: Burkholderia mallei ATCC 23344.
[15] abbreviates: source organism: Burkholderia mallei.

Take VQKVNPAPK: the Kd with HLA-A*02:01 (setting [7]) was no less than 20 µM; with HLA-B*18:01 [1] (setting [7]) it was no less than 20 µM; with HLA-B*08:03 (source organism: Campylobacter jejuni subsp. jejuni 81116), no less than 20 µM; with HLA-A*68:02 (setting [7]) it was no less than 20 µM; with HLA-B*07:02 (setting [7]), no less than 20 µM; in the experiment with HLA-A*31:01 (setting [7]) it was 0.904 µM. Also, the dissociation constant (Kd) was no less than 10 µM with HLA-B*27:05 (setting [7]); no less than 20 µM with HLA-B*57:01 (setting [7]); no less than 20 µM with HLA-B*15:17 (setting [7]); 1.12 µM in the experiment with HLA-B*15:01 (setting [7]); no less than 20 µM in the experiment with HLA-B*48:01; no less than 20 µM with HLA-B*58:01 (setting [7]). In addition, the Kd with HLA-A*03:01 (setting [7]) was 0.476 µM; with HLA-B*40:01 (setting [7]), no less than 20 µM; with HLA-A*01:01 (setting [7]) it was no less than 20 µM; with HLA-B*46:01 (setting [7]) it was no less than 20 µM.

As for VVYKEAKIK, the dissociation constant (Kd) with HLA-A*02:01 (setting [8]) is 0.978 µM; with HLA-A*69:01 (setting [8]), no less than 20 µM; with HLA-A*02:06 [2], 0.657 µM; with HLA-B*18:01 [1] (setting [8]) it was no less than 20 µM; with HLA-A*02:11, 0.868 µM; in the experiment with HLA-A*24:02 (setting [8]) it was no less than 20 µM. Besides, the Kd with HLA-B*07:02 (setting [8]), with HLA-B*27:05 (setting [8]), with HLA-B*44:02 (setting [8]), with HLA-B*15:01 (setting [8]), with HLA-B*08:01 [3] (setting [9]) and with HLA-A*26:01 (setting [9]) was no less than 20 µM throughout. Moreover, the Kd is 1.12 µM with HLA-A*02:03; no less than 20 µM with HLA-B*58:01 (setting [8]); 0.313 µM with HLA-A*03:01 (setting [8]); 1.99 µM with HLA-A*02:12; no less than 20 µM in the experiment with HLA-B*40:01 (setting [8]); no less than 20 µM in the experiment with HLA-A*01:01 (setting [8]). Also, the Kd with HLA-B*46:01 (setting [8]) and with HLA-A*02:19 was no less than 20 µM each time.

For LAKSVFNSL, the dissociation constant Kd with HLA-B*51:01 is no less than 20 µM; with HLA-B*08:01 [4], 0.726 µM; with HLA-A*02:01 (setting [10]), no less than 20 µM; with HLA-B*18:01 [1] (setting [10]) it was no less than 20 µM; in the experiment with HLA-B*08:03 (source organism: Influenza A virus (A/Taiwan/2/2006(H1N1))) it was 2.13 µM; with HLA-B*27:05 (setting [10]) it was no less than 20 µM. Also, the equilibrium dissociation constant (Kd) with HLA-B*44:02 (setting [10]), with HLA-A*11:01 (setting [10]), with HLA-B*15:01 (setting [10]), with HLA-B*58:01 (setting [10]), with HLA-A*03:01 (setting [10]) and with HLA-B*40:01 (setting [10]) was no less than 20 µM throughout. The dissociation constant Kd in the experiment with HLA-A*01:01 (setting [10]), in the experiment with HLA-B*46:01 (setting [10]) and with HLA-A*29:02 was no less than 20 µM throughout.

For VQGYERIMY, the dissociation constant Kd with HLA-A*02:01 (setting [11]), in the experiment with HLA-A*69:01 (setting [11]), with HLA-B*07:02 (setting [11]), with HLA-A*31:01 (setting [11]), with HLA-B*27:05 (setting [11]) and in the experiment with HLA-B*44:02 (setting [11]) was no less than 20 µM throughout. Further, the equilibrium dissociation constant (Kd) was no less than 20 µM in the experiment with HLA-A*11:01 (setting [11]); 0.271 µM with HLA-B*15:01 (setting [11]); no less than 20 µM in the experiment with HLA-B*08:01 [3] (setting [11]); no less than 20 µM in the experiment with HLA-A*26:01 (setting [11]); no less than 20 µM with HLA-B*58:01 (setting [11]); no less than 20 µM in the experiment with HLA-A*03:01 (setting [11]). Besides, the Kd in the experiment with HLA-B*15:02 (setting [11]), with HLA-B*40:01 (setting [11]), with HLA-A*01:01 (setting [11]) and with HLA-B*46:01 (setting [11]) was no less than 20 µM in each case.

With FQHERLGQF, the dissociation constant Kd with HLA-B*15:01 (setting [12]) came out at 0.0204 µM; with HLA-B*15:02 (source organism: Hantaan virus Q32), 0.029 µM; with HLA-B*46:01 (setting [12]) it was 0.783 µM.

For the sequence GYAWIDFDI, the Kd in the experiment with HLA-A*02:06 [5] was no less than 20 µM; in the experiment with HLA-B*18:01 [6] it was 0.408 µM; with HLA-A*02:01 (setting [13]), no less than 20 µM; with HLA-A*24:03 it was 0.0034 µM; in the experiment with HLA-B*08:03 (setting [13]), no less than 20 µM; with HLA-A*24:02 (setting [13]) it was 0.0037 µM. For the same sequence, the Kd with HLA-A*68:02 (setting [13]), with HLA-B*07:02 (setting [13]), in the experiment with HLA-A*31:01 (setting [13]), in the experiment with HLA-B*57:01 (setting [13]), in the experiment with HLA-A*11:01 (setting [13]) and in the experiment with HLA-B*15:17 (setting [13]) was no less than 20 µM in each case. In addition, the Kd with HLA-A*23:01 is 0.0039 µM; with HLA-B*15:01 (setting [13]), no less than 20 µM; with HLA-B*08:01 [3] (setting [13]) it was no less than 20 µM; in the experiment with HLA-A*26:01 (setting [13]) it was no less than 20 µM; with HLA-B*58:01 (setting [13]), no less than 20 µM; in the experiment with HLA-A*26:02, no less than 20 µM. The same sequence came in with a Kd with HLA-A*01:01 (setting [13]) of no less than 20 µM.

Take MMYASWGVH: the dissociation constant Kd with HLA-B*07:02 (setting [14]) is no less than 20 µM; with HLA-B*15:01 (setting [15]) it was 0.0082 µM; in the experiment with HLA-B*15:02 (setting [14]) it was 0.003 µM; with HLA-B*46:01 (setting [15]), 3.76 µM; in the experiment with HLA-B*35:01, 2.68 µM.

The term Kd denotes the free concentration of one partner at which half of the binding sites on the other are occupied at equilibrium, for simple one-to-one binding.
